Laboratory results published in US20240376207A1 (JIANGSU HENGRUI PHARMACEUTICALS, published 2024).

T1: human PVRIG expressed on cells (human, UniProt Q6DKI7 41-326)
T1 sequence (looked up): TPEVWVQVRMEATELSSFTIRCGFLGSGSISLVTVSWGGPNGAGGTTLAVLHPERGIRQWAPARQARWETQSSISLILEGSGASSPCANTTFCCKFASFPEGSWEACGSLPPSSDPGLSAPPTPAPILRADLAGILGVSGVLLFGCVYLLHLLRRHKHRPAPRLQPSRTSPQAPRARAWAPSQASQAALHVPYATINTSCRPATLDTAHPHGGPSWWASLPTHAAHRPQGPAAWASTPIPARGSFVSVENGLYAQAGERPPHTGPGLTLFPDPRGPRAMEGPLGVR

T2: his-tagged cynomolgus monkey PVRIG (cyno-PVRIG-his) recombinant protein (cynomolgus monkey)
T2 construct: expressed in HEK293, purified by Ni-NTA; also called Monkey PVRIG-his; cynomolgus monkey PVRIG recombinant protein
T2 chain: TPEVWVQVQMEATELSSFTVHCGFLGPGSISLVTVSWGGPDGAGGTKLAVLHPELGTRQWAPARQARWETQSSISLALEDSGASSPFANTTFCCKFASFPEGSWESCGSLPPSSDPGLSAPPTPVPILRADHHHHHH

T3: human PVRIG antigen (AcroBiosystem, PVG-H52H4) (human, UniProt Q6DKI7 41-171, limits assumed)
T3 sequence (looked up): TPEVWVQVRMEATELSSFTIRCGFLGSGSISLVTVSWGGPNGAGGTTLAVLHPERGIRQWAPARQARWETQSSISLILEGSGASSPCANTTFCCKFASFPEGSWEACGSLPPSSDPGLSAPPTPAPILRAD

T4: human TIGIT antigen (AcroBiosystem, TIT-H52H3) (human, UniProt Q495A1 22-141)
T4 sequence (looked up): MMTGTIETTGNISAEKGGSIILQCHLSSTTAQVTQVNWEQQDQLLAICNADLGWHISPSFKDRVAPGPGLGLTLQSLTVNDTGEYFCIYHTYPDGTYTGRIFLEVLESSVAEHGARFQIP

T5: human TIGIT recombinant protein (human, UniProt Q495A1 22-141, limits assumed)
T5 construct: construct not described; also called human TIGT recombinant protein
T5 sequence (looked up): T4 sequence (looked up)

B1: anti-PVRIG antibody 39 (antibody, human IgG4 S228P, F234A L235A, V domains shown)
VH: QVQLVESGGGSVQAGGSLRLSCAASRYTSRTDCMGWFRQAPGKEREGVAHIDSDGIPRYVESVKGRFTISQDHAKNTLYLQMNSLKPEDSATYYCVVGFKFGDYCAPNDWGQGTQVTVSS
notes: no light chain
B2: anti-PVRIG antibody 151 (antibody, human IgG4 S228P, F234A L235A, V domains shown)
VH: HVQLVESGGGSVQAGGSLRLSCVASASGFTYRPYCMAWFRQAPGKEREAVAGIDIFGGTTYADSVKGRFTASRDNAGFSLFLQMNDLKPEDTAMYYCAAGDSPDGRCPPLGQGLNYWGQGTQVTVSS
notes: no light chain
B3: humanized anti-PVRIG/TIGIT bispecific antibody 1708-20H5 (bispecific antibody, human IgG4 S228P, kappa)
heavy: not shown
light: DIQMTQSPSSLSASVGDRVTITCRASENIYSYLAWYQQKPGKSPKLLIYNARTLAEGVPSRFSGSGSGTDFTLTISSLQPEDFATYYCQYHSGSPLPFGGGTKVEIKRTVAAPSVFIFPPSDEQLKSGTASVVCLLNNFYPREAKVQWKVDNALQSGNSQESVTEQDSKDSTYSLSSTLTLSKADYEKHKVYACEVTHQGLSSPVTKSFNRGEC
B4: humanized anti-PVRIG/TIGIT bispecific antibody 1708-30H2 (bispecific antibody, human IgG4 S228P, kappa)
heavy: not shown
light: B3 light

What was measured:
[1] = target: T1, human PVRIG expressed on cells; assay: cell-based or functional assay
[2] = target: T2, his-tagged cynomolgus monkey PVRIG …; assay: SPR (Biacore X100), antibody captured on Protein A chip, 1:1 fit
Source text: (§1) The affinity of the humanized bispecific antibodies for human PVRIG, cynomolgus monkey PVRIG and human TIGIT was detected using Biacore. Humanized bispecific antibodies were each captured on a Protein A biosensor chip (GE lifesciences, 29127557) of a Biacore instrument (Biacore X100, GE), and then human PVRIG antigen (AcroBiosystem, PVG-H52H4), cynomolgus monkey PVRIG antigen (SEQ ID NO: 1), or human TIGIT antigen (AcroBiosystem, TIT-H52H3) at a series of concentration gradients each flowed over the chip surface. The reaction signals were detected in real time using a Biacore instrument (Biacore X100, GE) to obtain association and dissociation curves. The data obtained from the experiment were fitted using the (1:1) Binding model with the BiacoreX100 evaluation software 2.0 GE to obtain affinity values (see Table 31).

[3] = target: T3, human PVRIG antigen (AcroBiosystem, …); assay: as above
Source text: as §1

[4] = target: T4, human TIGIT antigen (AcroBiosystem, …); assay: as above
Source text: as §1

[5] = target: T5, human TIGIT recombinant protein; assay: competition ELISA; human TIGIT, competitor human PVR
Protocol: The h-PVRIG-mIgG2a Fc protein (at a concentration of 1 μg/mL) was coated on the 96-well microplate at 100 μL per well, and incubated overnight at 4° C. The plate was washed three times with wash buffer at 250 μL per well. For each wash, the plate was shaken for 10 s to ensure adequate cleaning. A blocking solution was added at 300 μL/well, and the plate was incubated at room temperature for 1 h. The plate was washed three times with wash buffer at 250 μL per well. For each wash, the plate was shaken for 10 s to ensure adequate cleaning. 50 μL of diluted test anti-PVRIG antibody and 50 μL of his-tagged ligand PVRL2 were added to each well, and the plate was incubated at 37° C. for 1 h. The plate was washed three times with wash buffer at 250 μL per well. The HRP-labeled anti-his-tagged secondary antibody (Genscrpit) diluted at 1:2000 was added at 100 μL per well. The plate was incubated at 37° C. for 1 h. The plate was washed three times with wash buffer at 250 μL per well. TMB was added at 100 μL/well, and the plate was incubated in the dark for 15 min. 0.16 M sulfuric acid was added at 50 μL/well. OD values at 450 nm were measured using a Thermo MμtLtiSkanFc microplate reader, and the IC₅₀ values of the anti-PVRIG antibodies blocking the binding of PVRIG to PVRL2 were calculated.
Similarly to Examples 4, 5 and 6, the binding of humanized anti-PVRIG/TIGIT bispecific antibodies to human and cynomolgus monkey TIGIT and blocking of binding of human TIGIT to ligand were detected, where PVRIG protein was replaced with TIGIT and PVRL2 was replaced with PVR.

Binder	NK92 killing of K562, killing activity (%), 4 nM antibody [1] [%]	NK92 killing of K562, killing activity (%), 20 nM antibody [1] [%]	NK92 killing of K562, killing activity (%), 100 nM antibody [1] [%]	Kd [2] [nM]	koff [2] [s⁻¹]	kon [2] [M⁻¹ s⁻¹]	Kd [3] [nM]	koff [3] [s⁻¹]	kon [3] [M⁻¹ s⁻¹]	Kd [4] [nM]	koff [4] [s⁻¹]	kon [4] [M⁻¹ s⁻¹]	IC50 [5] [nM]
B1	21.3	22.7	22.8										
B2	20.9	22.9	24.2										
B3				7.05	0.181	2.56e+07	0.00782	0.00013	1.67e+07	0.0763	0.00015	1.97e+06	1.02
B4				31.9	0.581	1.82e+07	0.706	0.00912	1.29e+07	0.0512	0.000158	3.08e+06	1.01
